The results in this text go back to US20120266264A1 (VANCOUVER BIOTECH, published 2012).

Sequences and labels used below:
B1: synthetic peptide corresponding to the N-terminal 1-29 amino acid residues of human GnRH receptor (peptide)
peptide: MANSASPEQNQNHCSAINNSIPLMQGNLP
notes: Custom synthesized; also called 1-29 synthetic peptide; 1-29 peptide
B2: GHR-106 monoclonal antibody (antibody, V domains shown)
VH: QVQLKESGPGLVAPSQSLSITCTVSGFSLSRYSVHWVRQPPGKGLEWLGMIWGGGSTDYNSALKSRLSISKDNSKSQVFLKMNSLQTDDTAMYYCARGNDGYYSFAYWGQGTLVTVSS
VL: DIVMSQSPSSLAVSAGEKVTMSCKSSQSLLNSRTRKNYLAWYQQKPGQSPKLLIYWASTRESGVPDRFTGSGSGTDFTLTISSVQAEDLAVYYCKQSYNLYTFGGGTKLEIK
notes: Murine hybridoma monoclonal antibody raised against the KLH-coupled 1-29 peptide of human GnRH receptor; detected with goat anti-mouse IgG; also called ATCC PTA-10252

The target of test [1] is B2. The test can be described thus: competition cell ELISA, free peptide against GHR-106 on OC-3-VGH cells (FIG. 3B). For orientation: An ELISA detects its analyte on a solid surface through an enzyme-linked reagent.
The target of test [2] is B1. Put plainly: ELISA on coated peptide.
For test [3], the target named is T1, human GnRH receptor (human, UniProt P30968 1-328).
T1 construct: whole, on cells; Endogenous receptor on human cancer cell lines; also called GnRHR1; gonadotropin releasing hormone receptor
T1 sequence (looked up): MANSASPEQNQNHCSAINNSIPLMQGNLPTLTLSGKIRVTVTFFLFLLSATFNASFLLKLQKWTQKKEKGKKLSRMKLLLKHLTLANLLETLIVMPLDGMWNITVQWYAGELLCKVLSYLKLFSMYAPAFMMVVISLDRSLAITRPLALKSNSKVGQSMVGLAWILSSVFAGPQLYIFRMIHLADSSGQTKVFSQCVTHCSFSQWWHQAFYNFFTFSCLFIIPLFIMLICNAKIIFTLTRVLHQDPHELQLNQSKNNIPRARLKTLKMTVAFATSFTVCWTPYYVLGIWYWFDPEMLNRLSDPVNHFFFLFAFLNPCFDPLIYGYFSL
Put plainly: ELISA, microwells coated with 1-29 synthetic peptide or OC-3-VGH cancer cells, AP-labeled goat anti-mouse IgG.

For test [4], the target named is B1. The test can be described thus: ELISA on coated peptide (FIG. 2A).

Consider B1, for which the binding result in test [1] is “binds”.
Take B2: the binding result in test [2] is listed as “binds”. The same molecule registered a Kd in test [3] of 2 nM.

B3: GHR-103 monoclonal antibody (antibody, V domains shown)
VH: QVQLKESGPGLVAPSQSLSITCTVSGFSLSRYSVHWVRQPPGKGLEWLGMIWGGGSTDYNSALKSRLSISKDNSKSQVFLKMNSLQTDDTAMYYCARGNDGYYSFAYWGQGTLVTVSS
VL: DIVMSQSPSSLAVSAGEKVTMSCKSSQSLLNSRTRKNYLAWYQQKPGQSPKLLIYWASTRESGVPDRFTGSGSGTDFTLTISSVQAEDLAVYYCKQSYNLYTFGGGTKLEIK
notes: Murine monoclonal
B3: the binding result in test [4] is “binds”.

A word on the Kd: it is the concentration at which binding is half-saturated. A high value points to a looser complex.
